What was measured:
[1] = target: T1, N-terminal histone H3 peptide (amino acid residues 1-20), P68431; assay: native mass spectrometry; settings: chain shown with the change, protein and substrate concentrations 5 µM
[2] = target: T1, N-terminal histone H3 peptide (amino …); assay: differential scanning fluorimetry; settings: chain shown with the change; 500 µM histone H3 peptide; parent: est. 4.4; read off a plot
[3] = target: T2, G9a methyltransferase domain (aa residues 913-1193), Del 1163-4, Q96KQ7-1; assay: native mass spectrometry (nESI-MS); settings: chain shown with the change;; read off a plot
T2 chain: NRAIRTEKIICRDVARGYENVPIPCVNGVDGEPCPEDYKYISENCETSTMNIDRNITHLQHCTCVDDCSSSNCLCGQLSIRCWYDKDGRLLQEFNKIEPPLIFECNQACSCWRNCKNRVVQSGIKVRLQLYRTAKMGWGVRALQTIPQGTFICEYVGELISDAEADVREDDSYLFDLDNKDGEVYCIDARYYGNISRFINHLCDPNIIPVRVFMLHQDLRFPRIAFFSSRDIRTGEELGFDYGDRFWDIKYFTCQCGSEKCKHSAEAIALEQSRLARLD

other: relative abundance, 2x peptide bound ([1]; parent: 24): < 1 | other: relative abundance, free protein ([1]; parent: 30): 88 | other: relative abundance, 1x peptide bound ([1]; parent: 46): 11 | other: ΔTm upon substrate addition [2]: 2.3 °C | ratio to parent [3]: 0.58
B1: G9a methyltransferase domain (aa residues 913-1193), wild type, Q96KQ7-1 S1163del; K1164del (protein)
chain: T2 chain
